Sequences and labels used below:
B1: LAG3 P11A2 aVH domain (VHH)
VHH: EVQLVESGGGLVQPGGSLRLSCAASSFNIKDTYIGWVRRAPGKGTELVAEIACHEGTTRYADSVKGRFTISCDTSKNTAYLQMNSLRAEDTAVYYCANTEYDDIFDYWGQGTTVTVSS
B2: LAG3 21B11 aVH domain (VHH)
VHH: EVQLVESGGGLVQPGGSLRLSCAASGFNIKDTCIGWVRRAPGKGTELVAEICQDIGYTRYADSVKGRFTISADTSKNTAYLQMNSLRAEDTAVYYCAADESVDNFKYWGQGTTVTVSS
B3: LAG3 9B4 aVH domain (VHH)
VHH: EVQLVESGGGLVQPGGSLRLSCAASGFNIKDTCIGWVRRAPGKGTELVAEICQDIGYTRYADSVKGRFTISADTSKNTAYLQMNSLRAEDTAVYYCAAVEVAEYFEYWGQGTTVTVSS
B4: LAG3 P21A03 aVH domain (VHH)
VHH: EVQLVESGGGLVQPGGSLRLSCAASGFNIKDTCIGWVRRAPGKGTELVAEICEDIGYTRYADSVKGRFTISADTSKNTAYLQMNSLRAEDTAVYYCAANEHSVGFNYWGQGTTVTVSS
notes: also called 21A3
B5: LAG3 P11E2 aVH domain (VHH)
VHH: EVQLVESGGGLVQPGGSLRLSCAASGFNIKDTCIGWVRRAPGKGTELVAEICDDIGYTRYADSVKGRFTISADTSKNTAYLQMNSLRAEDTAVYYCASQEHQWSFKYWGQGTTVTVSS
B6: LAG3 P9G1 aVH domain (VHH)
VHH: EVQLVESGGGLVQPGGSLRLSCAASGFNIKDTCIGWVRRAPGKGTELVAEICQDIGYTRYADSVKGRFTISADTSKNTAYLQMNSLRAEDTAVYYCAGEEGATNFKYWGQGTTVTVSS
B7: LAG3 P10C3 aVH domain (VHH)
VHH: EVQLVESGGGLVQPGGSLRLSCAASGFNIKDTCIGWVRRAPGKGTELVAEICTDAGYTRYADSVKGRFTISADTSKNTAYLQMNSLRAEDTAVYYCAASESPSGFRYWGQGTTVTVSS
B8: LAG3 17D7 aVH domain (VHH)
VHH: EVQLVESGGGLVQPGGSLRLSCAASGFNIKDTCIGWVRRAPGKGTELVAEICTDIGYTRYADSVKGRFTISADTSKNTAYLQMNSLRAEDTAVYYCAAGEGSSGFHYWGQGTTVTVSS
B9: LAG3 P11E9 aVH domain (VHH)
VHH: EVQLVESGGGLVQPGGSLRLSCAASGFNIKDTCIGWVRRAPGKGTELVAEICHDIGYTRYADSVKGRFTISADTSKNTAYLQMNSLRAEDTAVYYCAAEEHVASFEYWGQGTTVTVSS
B10: LAG3 P10D1 aVH domain (VHH)
VHH: EVQLVESGGGLVQPGGSLRLSCAASGFSIKDTCIAWVRRAPGKGTELVAEICEDIGYTRYADSVKGRFTISADTSKNTAYLQMNSLRAEDTAVYYCAAKEAGVGFDYWGQGTTVTVSS
notes: also called P110D1
B11: LAG3 19G3 aVH domain (VHH)
VHH: EVQLVESGGGLVQPGGSLRLSCAASGFNIKYQCIGWVRRAPGKGTELVAEICSYDGYTRYADSVKGRFTISADTSKNTAYLQMNSLRAEDTAVYYCAAEESVEGFIYWGQGTTVTVSS
notes: also called P19G3

T1 sequence (chain, as listed by the source limits assumed): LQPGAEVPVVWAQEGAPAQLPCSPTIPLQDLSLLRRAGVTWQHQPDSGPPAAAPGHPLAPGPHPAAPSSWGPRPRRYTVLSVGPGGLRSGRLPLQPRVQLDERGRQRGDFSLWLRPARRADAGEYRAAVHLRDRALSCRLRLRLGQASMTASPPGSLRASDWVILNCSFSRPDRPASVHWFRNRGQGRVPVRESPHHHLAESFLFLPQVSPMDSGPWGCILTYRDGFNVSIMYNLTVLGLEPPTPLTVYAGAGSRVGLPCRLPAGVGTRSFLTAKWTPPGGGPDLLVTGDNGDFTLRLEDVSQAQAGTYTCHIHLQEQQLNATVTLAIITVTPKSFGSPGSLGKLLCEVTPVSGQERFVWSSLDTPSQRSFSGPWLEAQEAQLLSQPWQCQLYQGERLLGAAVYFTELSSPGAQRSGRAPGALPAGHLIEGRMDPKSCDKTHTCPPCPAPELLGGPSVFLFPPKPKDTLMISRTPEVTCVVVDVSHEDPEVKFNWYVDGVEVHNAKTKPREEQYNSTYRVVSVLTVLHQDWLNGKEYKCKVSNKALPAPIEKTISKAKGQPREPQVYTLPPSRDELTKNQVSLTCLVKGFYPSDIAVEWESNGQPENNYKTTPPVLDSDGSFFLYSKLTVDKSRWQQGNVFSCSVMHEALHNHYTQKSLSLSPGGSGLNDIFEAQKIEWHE

The experiment has as its target T1, soluble human Lag3-IgG1-Fc with biotinylated C-terminal Avi-tag (human, biotin on the C-terminal Avi-tag).
T1 construct: also called LAG3-Fc-avi; biotinylated LAG3-Fc antigen
In words: SPR (ProteOn XPR36), biotinylated LAG3-Fc captured on NLC chip, purified aVH as analyte, 25 C.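 Further: One-shot kinetics in PBST running buffer, rates fitted by 1:1 Langmuir model fitting association and dissociation together, KD as koff/kon, biotinylated Fc surface as negative control.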
In turn, B1 had a Kd of 0.055 µM, a koff of 0.0138 s⁻¹ and a kon of 251000 M⁻¹ s⁻¹.

Regarding B2, the affinity, expressed as Kd, was 0.043 µM; the koff was 0.00217 s⁻¹; the kon amounted to 62700 M⁻¹ s⁻¹.

The molecule B3 registered a dissociation constant (Kd) of 0.086 µM, a koff of 0.00314 s⁻¹ and a kon of 36500 M⁻¹ s⁻¹.

B4 came in with a Kd of 0.0137 µM, a koff of 0.000387 s⁻¹ and a kon of 28200 M⁻¹ s⁻¹.

Consider B5, for which binding was characterised by a dissociation constant (Kd) of 0.0367 µM, the koff was determined as 0.00157 s⁻¹ and the kon amounted to 42800 M⁻¹ s⁻¹.

Molecule B6 displayed a Kd of 0.0051 µM, a koff of 0.000829 s⁻¹ and a kon of 162000 M⁻¹ s⁻¹.

As to B7, the Kd was 0.0385 µM, the koff is 0.00217 s⁻¹ and the kon was 56200 M⁻¹ s⁻¹.

Molecule B8 came in with a Kd of 0.311 µM, a koff of 0.00493 s⁻¹ and a kon of 15900 M⁻¹ s⁻¹.

B9 gave a Kd of 0.00681 µM, a koff of 0.000656 s⁻¹ and a kon of 96300 M⁻¹ s⁻¹.

B10 came in with a Kd of 0.027 µM, a koff of 0.00383 s⁻¹ and a kon of 144000 M⁻¹ s⁻¹.

In turn, B11 yielded a Kd of 0.766 µM, a koff of 0.00466 s⁻¹ and a kon of 6080 M⁻¹ s⁻¹.

The values above are taken from patent US20200354457A1 (Hoffmann-La Roche, published 2020).
